From patent US20230322857A1, “RECOMBINANTLY ENGINEERED POLYPEPTIDES CAPABLE OF RECYCLING NONCANONICAL COFACTORS” (The Regents of the University of California, priority 2022, published 2023)
Numbering of substitutions follows the chain as printed. Names and notes keep the numbering of the source. “Also recorded” adds a separate entry of the source.

What was measured:
[1] = Steady state kinetics of glutathione reductase (Gor) variants with NADH; assay type: biochemical; details: for Km: enzyme could not be saturated, 96 mM Tris-Cl pH 7.5, 2.5 mM GSSG
Method: (§1) Expression and Purification of Gor Wild-type and Variants. E. coli Gor (EC 1.6.4.2) is a homo-dimeric flavoenzyme containing 450 amino acid residues with 1 FAD per subunit. To prevent interference from endogenous protein, Gor wild-type and variants were expressed using E. coli Δgor::kan strain containing pQElac based plasmids encoding for the Gor wild-type or variants. 1% (v/v) cells from an overnight culture were cultured in 2×YT media with 200 μg/mL ampicillin and 50 μg/mL kanamycin in shake flasks at 37° C. in a rotary shaker to an OD600 of 0.4-0.6. The cultures were then induced with 0.5 mM IPTG and incubated at 30° C. with shaking for 24 h. The cells were harvested with centrifugation and lysed by bead beating with Zymo His Binding Buffer (Zymo Research, CA, USA). Protein purification was performed with Zymo His-Spin Protein miniprep purification kit according to the manufacturer's instructions. The concentrations of purified protein were quantified by Coomassie dye—based assays (Bradford) using BSA (Bovine Serum Albumin) as standards.
(§2) Specific Activity and Steady State Kinetic Analyses for Gor Wild-type and Variants. The specific activity and kinetic parameters of Gor with the different cofactors, shown in FIG. 1, were measured using the following methods. For measuring the specific activity with NMNH, the 100 μL reaction mixture contained 96 mM potassium phosphate buffer pH 7.5, 2.5 mM GSSG and 0.8 mM NMNH. NMNH was generated using methods described in Black et al. (Nat. Chem. Biol. 16:87-94 (2020). Briefly, 4 mM NMN^+ was incubated in a solution containing 50 mM Tris-Cl at pH 8.5, 0.2 mM EDTA, 50 mM Na2HPO4, 5 mM D-glyceraldehyde-3-phosphate, and 28 μM of purified E. coli glyceraldehyde-3-phosphate dehydrogenase. The reaction was incubated at 30° C. for 8 h. The protein was removed by an Amicon Ultra 3 K filter, and the flow-through was dried under vacuum. Assays investigating the steady-state kinetic parameters were completed with 100 μL reaction mixtures containing 96 mM Tris-Cl buffer pH 7.5, 2.5 mM GSSG and varied cofactor concentrations from 0.01 mM to 1.6 mM. The assay was started by addition of 10 μL of purified protein at appropriate concentration at 25° C. The kinetic parameters were measured by monitoring the NAD(P)H consumption at 340 nm in 96-well plate. Data was fit to the Michaelis-Menten equation to generate estimates of apparent catalytic efficiency (kcat/Km). The results are the average of three independent experiments.

[2] = Specific activity of Gor variants with NMNH; assay type: biochemical
Method: as §1
Specific Activity and Steady State Kinetic Analyses for Gor Wild-type and Variants. The specific activity and kinetic parameters of Gor with the different cofactors, shown in FIG. 1, were measured using the following methods. For measuring the specific activity with NMNH, the 100 μL reaction mixture contained 96 mM potassium phosphate buffer pH 7.5, 2.5 mM GSSG and 0.8 mM NMNH. […] The kinetic parameters were measured by monitoring the NAD(P)H consumption at 340 nm in 96-well plate. […]

[3] = Steady state kinetics of glutathione reductase (Gor) variants with NMNH; assay type: biochemical; details: for Km: enzyme could not be saturated, 96 mM Tris-Cl pH 7.5, 2.5 mM GSSG
Method: as §1, §2

[4] = Steady state kinetics of glutathione reductase (Gor) variants with NADPH; assay type: biochemical
Method: as §1
as §2, with “Assays investigating the steady-state kinetic parameters were completed with 100 μL reaction mixtures containing 96 mM Tris-Cl buffer pH 7.5, 2.5 mM GSSG and varied cofactor concentrations from 0.01 mM to 1.6 mM.” left out

[5] = previously identified variant; cited from earlier work
E. coli SHuffle strain = assay: GDH-Gor coupled growth rescue in SHuffle strain; assay type: cell-based, Escherichia coli; details: 0.5 mM diamide, varying NMN^+ concentrations
Method: Culture conditions for GDH-Gor coupled growth rescue in SHuffle strain. The electro-competent cells of SHuffle harboring pLZ311 or pLZ312 were made as follows: The SHuffle cells were cultured in 200 mL SOB media with spectinomycin at 30° C. with shaking until OD600 reached 0.4-0.6. The culture was chilled on ice for 15 min and the cells were pelleted at 4° C., 4,000×g. Collected cells were washed with 10% glycerol in water (sterile, ice cold) and resuspended with 5 mL of 10% glycerol in water (sterile, ice cold), and stored as 50 μL aliquots at −80° C.
Glucose facilitator (encoded by glf) was used for uptake of unphosphorylated glucose into the cells. The co-transformation of Bs gdh and Zm glf was performed as follows: Thaw SHuffle/pLZ311 or SHuffle/pLZ312 electro-competent cells on ice, add 1 μL Bs gdh (pEK101 or pLZ210) and 1 μL Zm glf(pSM109) plasmid DNA to 50 μL competent cells, mix, and electroporate. Cells were recovered with 1 mL SOC at 37° C. with shaking for 1 h. The cells were added to 10 mL 2×YT with 10 g/L glucose, 0.5% arabinose, kanamycin, chloramphenicol, and ampicillin. After incubation at 37° C. with shaking for 10 h, 1 mL cells were washed 3 times and re-suspended in M9 buffer (1×BD Difco M9 Salts). Targeted dilutions after cells reached density of OD600 0.6 were prepared in M9 buffer and 5 μL aliquots were dispensed in series on an agar plate of M9 selection media containing 0.5 mM diamide, 1 g/L yeast extract, 10 g/L glucose, 0.5% arabinose, 0.5 mM IPTG, ampicillin, kanamycin, chloramphenicol and serial NMN concentrations of 0, 2, 4 and 6 mM. Selection plates were incubated at 37° C., and photos were taken to document growth progress.

[6] = 96 mM Tris-Cl buffer pH 7.5, 2.5 mM GSSG, varied cofactor concentrations, n = 3

B1: Gor I178T (protein, UniProt P06715 1-450, looked up, variant I178T)
Glutathione reductase: MTKHYDYIAIGGGSGGIASINRAAMYGQKCALIEAKELGGTCVNVGCVPKKVMWHAAQIREAIHMYGPDYGFDTTINKFNWETLIASRTAYIDRIHTSYENVLGKNNVDVIKGFARFVDAKTLEVNGETITADHILIATGGRPSHPDIPGVEYGIDSDGFFALPALPERVAVVGAGYTAVELAGVINGLGAKTHLFVRKHAPLRSFDPMISETLVEVMNAEGPQLHTNAIPKAVVKNTDGSLTLELEDGRSETVDCLIWAIGREPANDNINLEAAGVKTNEKGYIVVDKYQNTNIEGIYAVGDNTGAVELTPVAVAAGRRLSERLFNNKPDEHLDYSNIPTVVFSHPPIGTVGLTEPQAREQYGDDQVKVYKSSFTAMYTAVTTHRQPCRMKLVCVGSEEKIVGIHGIGFGMDEMLQGFAVALKMGATKKDFDNTVAIHPTAAEEFVTMR
Km [1]: > 1500 µM
enhanced NMNH-dependent activity compared to the wild type ([2]; 0.8 mM NMNH, 2.5 mM GSSG, vs wild type Ec Gor): 4 fold
Km [3]: > 1500 µM
Km [4, 6]: 40 ± 10 µM
NADPH kcat [4, 6]: 31 ± 1 s⁻¹

B2: G174H: Ec Gor single-mutation variant predicted to make salt bridge with the NMNH phosphate group (protein, UniProt P06715 1-450, looked up, variant G174H)
Glutathione reductase: B1 Glutathione reductase with G174H, T178I
NMNH-dependent activity (in words) compared to the wild type ([2]; vs wild type Ec Gor): enhanced NMNH-dependent activity

B3: R198M-R204L: previously identified Ec Gor variant with R198M-R204L double mutations (protein, UniProt P06715 1-450, looked up, variant R198M R204L)
Glutathione reductase: B1 Glutathione reductase with T178I, R198M, R204L
NADPH-dependent activity [5]: almost completely abolished

B4: Gor Ortho: recombinantly engineered E. coli glutathione reductase with I178T, R198M, R204L (SEQ ID NO:8), NMNH-specific (protein)
chain: B1 Glutathione reductase with R198M, R204L
Km [1]: > 1500 µM
decrease of catalytic efficiency for NADH by the additional R198M-R204L mutations ([1]; vs I178T): ~2 fold
growth of SHuffle strain harboring the Gor variant (E. coli SHuffle strain): supporting growth only with NMN^+ cycling; also recorded: only grows with NMNH regeneration
change in NMNH-dependent activity on adding R198M-R204L to Ec Gor I178T ([2]; vs Ec Gor I178T): only a modest decrease
cofactor specificity switch from native cofactor NADPH to NMNH ([3]; based on catalytic efficiency measured in vitro): 60,000 fold
Km [3]: > 1500 µM
catalytic efficiency (kcat/Km) for NMNH, fold higher than the wild type ([3]; vs Ec Gor wild type): ~4 fold
saturation of activity with natural cofactors ([4]; concentrations up to 4 mM NAD(P)H): could not be saturated
Km ([4]; enzyme could not be saturated, 96 mM Tris-Cl pH 7.5, 2.5 mM GSSG): > 1500 µM
reduction of catalytic efficiency for NADPH compared to Ec Gor wild type ([4]; vs Ec Gor wild type): ~15,000 fold
reduction of catalytic efficiency for NADPH compared to I178T single mutant ([4]; vs I178T single mutant): ~9,000 fold

B5: Gor: wild type glutathione reductase from Escherichia coli (SEQ ID NO:7) (protein, listed as Escherichia coli)
chain: B1 Glutathione reductase with T178I
Km [1]: > 1500 µM
growth of SHuffle strain harboring the Gor variant (E. coli SHuffle strain; listed as wild type Ec Gor): robust growth independent of NMN^+ supplementation
growth of SHuffle strain harboring the Gor variant (E. coli SHuffle strain; listed as wild type Gor): no growth defects
Km [3]: > 1500 µM
Km [4, 6]: 60 ± 10 µM
NADPH kcat [4, 6]: 84 ± 7 s⁻¹
